We go through one molecule from paper PMC3972135, “Identification and Characterization of MT-1X as a Novel FHL3-Binding Partner” (PLoS ONE, 2014).

For the assay, the target named is T1, GST-FHL3 (human, UniProt Q13643 1-280).
T1 construct: Four and a half LIM domain protein 3 (FHL3), human, full length cDNA amplified from pBV220/FHL3, in pGEX-4T-1; also called GST–FHL3 fusion protein; source: E. coli DH5α, purified (GSTrap FF column)
T1 sequence (looked up): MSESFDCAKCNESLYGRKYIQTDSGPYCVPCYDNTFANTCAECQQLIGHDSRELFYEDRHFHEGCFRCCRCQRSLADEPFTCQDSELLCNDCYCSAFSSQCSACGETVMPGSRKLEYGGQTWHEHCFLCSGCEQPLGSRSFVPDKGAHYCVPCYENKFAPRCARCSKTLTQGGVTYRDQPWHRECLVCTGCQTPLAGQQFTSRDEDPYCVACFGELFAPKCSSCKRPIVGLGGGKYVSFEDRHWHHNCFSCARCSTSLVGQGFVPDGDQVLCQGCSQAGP
Briefly: pull-down; purified GST-FHL3 or GST on Glutathione Agarose, His-MT-1X from in vitro translation added, 4°C overnight; Western blot with anti-His. Conditions: both partners purified.

B1: His-MT-1X (natural protein)
chain: not shown
notes: MT-1X (metallothionein-1X), human; cDNA amplified by PCR from pACT2/MT-1X (the full length clone); also called pT7/MT-1X; source: in vitro translated (pT7CFE1-CHis)
Consider B1, for which the binding result is reported as “binds”.
